For 23 molecules, OD value and Kd results are on record in patent US20210395394A1.

Where a chain is given by its changes, count along the chain named.

The target in assay [1] is Pan-species-specific antigen Plasmodium Lactate DeHydrogenase (Pan-PLDH) protein. The assay is described as follows: indirect ELISA, recombinant MA protein coated 1 ug/ml, antibody 40 ng/ml.
The target is the same in assay [2]. Briefly: indirect ELISA, recombinant MA protein coated 1 ug/ml, antibody 0 ng/ml (blank). Background: ELISA stands for enzyme-linked immunosorbent assay.
The target is the same in assay [3]. Briefly: indirect ELISA, recombinant MA protein coated 1 ug/ml, antibody 1000 ng/ml.
Assay [4] has the same target. Briefly: indirect ELISA, recombinant MA protein coated 1 ug/ml, antibody 1.6 ng/ml.
The target is the same in assay [5]. The assay is described as follows: indirect ELISA, recombinant MA protein coated 1 ug/ml, antibody 200 ng/ml.
For assay [6] the target is unchanged. The assay is described as follows: indirect ELISA, recombinant MA protein coated 1 ug/ml, antibody 8 ng/ml.
The target is the same in assay [7]. Briefly: indirect ELISA, recombinant MA protein coated 1 ug/ml, antibody 0.32 ng/ml.
Assay [8] shares this target. The assay is described as follows: indirect ELISA at four coating concentrations, KD calculated from half-maximal OD.

B1: Mutation 3 (antibody, mouse IgG2b, kappa, V domains shown)
VH: QVQLQQPGAELVRPGASVKLSCKASGSSFTNYWMNWVKQRPGQGLEWIGMINPSESETRINQKFKDKATLTVDKSSSTAYMQLSSLTAEDSAVYYCAKSGDFYTSYFDYWGQGTTLTVSS
VL: DIQLTQSPASLSASVGETVTITCRGSGNLHNYIAWYQQKQGKSPQLLVYNARTIADGVPSRFSGSGSGTQYSLKINSLQPEDFGSYYCQSFWSTYTFGGGTKLEIKR
B1: the OD value at 450 nm (refer to 630 nm) was 2.01 OD in assay [1]; 0.053 OD in assay [2]; 2.23 OD in assay [3]; 0.274 OD in assay [4]; 2.14 OD in assay [5]; 1.01 OD in assay [6]. Also, the OD value at 450 nm (refer to 630 nm) in assay [7] was 0.255 OD.

B2: Mutation 1-53 (antibody, mouse IgG2b, kappa, V domains shown)
VH: B1 VH with N52H, I60V, K98R
VL: B1 VL with S26T, L29I, I33L, S90Y
One may read the Kd as the equilibrium constant for the complex coming apart. On to B2, for which the Kd in assay [8] is 0.717 nM.

B3: Mutation 2 (antibody, mouse IgG2b, kappa, V domains shown)
VH: B1 VH with W33F, N52H
VL: B1 VL with I33L, T94S
For B3, the OD value at 450 nm (refer to 630 nm) in assay [1] was 1.98 OD; in assay [2], 0.072 OD; in assay [3] it was 2.21 OD; in assay [4] it was 0.297 OD; in assay [5] it was 2.14 OD; in assay [6], 1 OD. Also, in assay [7], the OD value at 450 nm (refer to 630 nm) is 0.231 OD.

B4: WT 1-1 (antibody, mouse IgG2b, kappa, V domains shown)
VH: B1 VH with S27T, W33F, E55D, K98R, F107W
VL: B1 VL with S26T, L29I, R52K, I54L, S90T, T94S
For the molecule B4, in assay [8], the Kd is 0.759 nM.

B5: WT 1-5 (antibody, mouse IgG2b, kappa, V domains shown)
VH: B1 VH with S27Y, W33F, I60V, D101E, S105T, F107W
VL: B1 VL with S26T, L29I, I54L, T94S
On to B5, for which the Kd in assay [8] is 0.516 nM.

B6: WT 1-4 (antibody, mouse IgG2b, kappa, V domains shown)
VH: B1 VH with S27Y, W33F, E55D, I60V, S105T, F107W
VL: B1 VL with L29V, R52K, I54V, S90Y, T94S
B6: the Kd in assay [8] is 0.85 nM.

B7: WT 1-3 (antibody, mouse IgG2b, kappa, V domains shown)
VH: B1 VH with W33F, K98R, D101E, S105Y, F107W
VL: B1 VL with S26T, I54L, S90T, T94S
As for B7, in assay [8], the Kd was 0.485 nM.

B8: Mutation 1-51 (antibody, mouse IgG2b, kappa, V domains shown)
VH: B1 VH with N52H, D101E, S105Y
VL: B1 VL with S26T, L29V, I33L, I54L, S90T
As for B8, the dissociation constant Kd in assay [8] was 0.526 nM.

B9: Mutation 1-52 (antibody, mouse IgG2b, kappa, V domains shown)
VH: B1 VH with S27Y, N52H, I60L, D101E, S105T
VL: B1 VL with L29I, I33L, I54V
For the molecule B9, the Kd in assay [8] is 0.659 nM.

B10: Mutation 1-54 (antibody, mouse IgG2b, kappa, V domains shown)
VH: B1 VH with S27T, N52H, E55D, K98R, S105Y
VL: B1 VL with S26T, L29I, I33L, R52K, I54V
Consider B10, for which, in assay [8], the Kd is 0.633 nM.

B11: Mutation 1-45 (antibody, mouse IgG2b, kappa, V domains shown)
VH: B1 VH with S27Y, N52H, K98R, D101E, S105Y
VL: B1 VL with L29V, I33L
On to B11, for which the Kd in assay [8] is 0.415 nM.

B12: Mutation 4 (antibody, mouse IgG2b, kappa, V domains shown)
VH: B1 VH with W33F, N52H, F107W
VL: B1 VL
In the case of B12, the OD value at 450 nm (refer to 630 nm) came out at 1.92 OD in assay [1]; 0.066 OD in assay [2]; 2.15 OD in assay [3]; 0.251 OD in assay [4]; 2.03 OD in assay [5]; 0.939 OD in assay [6]. Moreover, the OD value at 450 nm (refer to 630 nm) in assay [7] amounted to 0.211 OD.

B13: Mutation 1-50 (antibody, mouse IgG2b, kappa, V domains shown)
VH: B1 VH with S27T, N52H, E55D, I60V, D101E
VL: B1 VL with L29V, I33L, R52K
For the molecule B13, the Kd in assay [8] was 0.0879 nM.

B14: Mutation 1-43 (antibody, mouse IgG2b, kappa, V domains shown)
VH: B1 VH with S27T, N52H, E55D, I60L, K98R, S105Y
VL: B1 VL with L29I, I33L, R52K, I54V
In the case of B14, the dissociation constant Kd in assay [8] is 0.53 nM.

B15: Mutation 1-48 (antibody, mouse IgG2b, kappa, V domains shown)
VH: B1 VH with S27Y, N52H, E55D, S105Y
VL: B1 VL with I33L, R52K, I54L, S90Y
Take B15: the Kd in assay [8] is 0.336 nM.

B16: Mutation 1 (antibody, mouse IgG2b, kappa, V domains shown)
VH: B1 VH with N52H
VL: B1 VL with I33L
With B16, the OD value at 450 nm (refer to 630 nm) was found to be 2.02 OD in assay [1]; 0.06 OD in assay [2]; 2.26 OD in assay [3]; 0.339 OD in assay [4]; 2.19 OD in assay [5]; 1.1 OD in assay [6]. In addition, the OD value at 450 nm (refer to 630 nm) in assay [7] was found to be 0.27 OD. Moreover, the Kd in assay [8] is 0.412 nM.

B17: Mutation 1-55 (antibody, mouse IgG2b, kappa, V domains shown)
VH: B1 VH with S27Y, N52H, E55D, I60L, K98R, S105T
VL: B1 VL with L29I, I33L, R52K, S90Y
Regarding B17, the equilibrium dissociation constant (Kd) in assay [8] was 0.559 nM.

B18: Mutation 1-47 (antibody, mouse IgG2b, kappa, V domains shown)
VH: B1 VH with S27T, N52H, I60V
VL: B1 VL with I33L, I54L, S90T
For B18, the Kd in assay [8] is 0.454 nM.

B19: anti-Pan-PLDH 9G7 monoclonal antibody (antibody, mouse IgG2b, kappa, V domains shown)
VH: B1 VH with W33F, F107W
VL: B1 VL with T94S
In the case of B19, the OD value at 450 nm (refer to 630 nm) in assay [1] was 1.43 OD; in assay [2], 0.072 OD; in assay [3], 1.94 OD; in assay [4] it was 0.205 OD; in assay [5], 1.82 OD; in assay [6] it was 0.635 OD. In assay [7], the OD value at 450 nm (refer to 630 nm) amounted to 0.173 OD. Also, in assay [8], the Kd was 0.887 nM.

B20: Mutation 1-46 (antibody, mouse IgG2b, kappa, V domains shown)
VH: B1 VH with S27T, N52H, I60L, K98R, D101E, S105T
VL: B1 VL with S26T, I33L, I54V, S90Y
Regarding B20, the Kd in assay [8] was 0.332 nM.

B21: Mutation 1-44 (antibody, mouse IgG2b, kappa, V domains shown)
VH: B1 VH with N52H, E55D, I60V, K98R, D101E
VL: B1 VL with S26T, L29V, I33L, R52K, I54L, S90Y
B21: the Kd in assay [8] was 0.318 nM.

B22: WT 1-2 (antibody, mouse IgG2b, kappa, V domains shown)
VH: B1 VH with S27Y, W33F, E55D, I60V, K98R, S105T, F107W
VL: B1 VL with S26T, L29V, R52K, S90Y, T94S
Regarding B22, in assay [8], the Kd was 0.639 nM.

B23: Mutation 1-49 (antibody, mouse IgG2b, kappa, V domains shown)
VH: B1 VH with N52H, E55D, I60L, S105T
VL: B1 VL with S26T, I33L, R52K, I54V, S90T
With B23, the Kd in assay [8] was 0.342 nM.
